Results on two molecules are retold here after US20220288226A1 (ENOSI LIFE SCIENCES, published 2022).

The target in one experiment is T1, TNFR1 on cells (human, UniProt P19438 30-455).
T1 sequence: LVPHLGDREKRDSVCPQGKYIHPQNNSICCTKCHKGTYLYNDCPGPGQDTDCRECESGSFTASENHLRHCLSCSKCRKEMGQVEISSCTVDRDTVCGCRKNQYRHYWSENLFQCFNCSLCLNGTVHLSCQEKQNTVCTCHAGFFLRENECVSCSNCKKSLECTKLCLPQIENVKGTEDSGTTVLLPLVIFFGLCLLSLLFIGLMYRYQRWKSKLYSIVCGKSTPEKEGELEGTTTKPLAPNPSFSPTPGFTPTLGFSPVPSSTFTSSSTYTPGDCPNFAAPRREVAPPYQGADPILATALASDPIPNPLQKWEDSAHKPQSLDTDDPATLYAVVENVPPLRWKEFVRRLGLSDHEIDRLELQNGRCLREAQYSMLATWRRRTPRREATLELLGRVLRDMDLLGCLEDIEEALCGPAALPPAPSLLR
Briefly: cell-based or functional assay.

For experiment [1], the target named is T2, extracellular domain of TNFR-1 (human, UniProt P19438 30-211).
T2 construct: The construct limits, tag, supplier and species are not restated there; also called TNFR1 extracellular domain; tumor necrosis factor receptor-1 (TNFR1)
T2 sequence: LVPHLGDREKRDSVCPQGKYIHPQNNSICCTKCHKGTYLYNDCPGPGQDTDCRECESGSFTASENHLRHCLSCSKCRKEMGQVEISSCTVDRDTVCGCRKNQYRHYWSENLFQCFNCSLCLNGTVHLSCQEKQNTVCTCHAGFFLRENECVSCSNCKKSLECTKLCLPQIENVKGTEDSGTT
Kind of experiment: SPR (Biacore), Vhh on TNFR1 extracellular domain. The method, then: (§1) Each of Vhh 1-4 subsequently was tested in binding studies using the surface plasmon resonance (SPR) method (Sciences GL. Biacore Assay Handbook. General Electric Company (2012); and Richter et al. (2019) MAbs 11:166-177). Competition assays of Vhh inhibition of TNF-a binding to TNFR1 extracellular domain also were performed as described in Richter et al. (2019).
A general note: SPR reads the build-up and loss of mass on a sensor chip optically.

In experiment [2] the target is T2, extracellular domain of TNFR-1. Briefly: competition assay, Vhh inhibition of TNF binding to TNFR1; competitor TNF-a. The method, then:
as §1

Broadly, the Kd is the concentration at which binding is half-saturated. A higher Kd goes with a looser complex. By IC50 is commonly meant the concentration that inhibits the measured activity by half. The low end stands for greater potency, the high end for weaker potency.

B1: Vhh-4 (VHH)
VHH: EVQLLESGGGLVQPGGSLRLSCAASGFTFAHETMVWVRQAPGKGLEWVSHIPPDGQDPFYADSVKGRFTISRDNSKNTLYLQMNSLRAEDTAVYHCALLPKRGPWFDYWGQGTLVTVSS
notes: also called DOM1h-131-206
Consider B1, for which, in the experiment with TNFR1 on cells, the “TNF Dependent Bioassay (IC50): VCAM” value was found to be 0.3 nM. For the same molecule, binding in experiment [1] was characterised by a dissociation constant (Kd) of 0.00066 nM. For the same molecule, the IC50 in experiment [2] was roughly 1 nM.

B2: Vhh-2 (VHH, not shown: small tags and cut ends)
VHH: EVQLLESGGGLVQPGGSLRLSCAASGFTFSQYRMHWVRQAPGKSLEWVSSIDTRGSSTYYADPVKGRFTISRDNSKNTLYLQMNSLRAEDTAVYYCAKAVTMFSPFFDYWGQGTLV
notes: it is placed last only by convention; also called Recombinant human anti-TNFRSF1A single domain antibody
For the molecule B2, the “TNF Dependent Bioassay (IC50): VCAM” value in the experiment with TNFR1 on cells was found to be 3 nM. This molecule also returned a Kd in experiment [1] of 1000 nM.
